Measured values: the supplement of paper PMC10126150
± gives the standard deviation of the averaged measurements.
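Also: ATP exposure 15 min at 22 °C before imaging.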

The sequences below were run on ATP (assay: switch fluorescence ratio, 500 uM ATP over buffer (Cy3 cluster intensity, sum of 5 cycles each) (fold (ratio)); higher = stronger signal-on switching upon ATP binding; sequences stand for … in TCGTCGGCAGCGTCAGATGTGTATAAGAGACAGTTTTTTTTTTTTTTTTTTTTTTTTT…TC). Settings: aptamer strand: ATP DNA aptamer (quencher-CACCTGGGGGAGTATTGCGGAGGAAGG + anchor), 100 nM annealed; ATP concentration: 500 uM.
Procedure, shortened: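 Cy3-labelled switching-strand clusters on a modified Illumina MiSeq flow-cell were annealed to 100 nM quencher-labelled ATP aptamer, imaged in selection buffer, then imaged after 15 min with 500 uM ATP at 22 °C. Five buffer/ATP cycles ran, with NaOH stripping and re-annealing between them. The fluorescence ratio is summed target-cycle over summed buffer-cycle Cy3 intensity per cluster, averaged per switch-domain sequence. Clusters outside 100-1000 RFU were excluded.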
TTGTTGGGGG showed a switch fluorescence ratio of 0.994 ± 0.027.
TTGATATAGT was tested, and the switch fluorescence ratio was 0.9993 ± 0.0073.
AGTTACGCGC was tested, and the switch fluorescence ratio was 1.04 ± 0.032.
Work on CCGGGAGTTA yielded a switch fluorescence ratio of 1.15 ± 0.034.
AGCTGTGTGT was tested, and the switch fluorescence ratio was 1.012 ± 0.0047.
Work on TTGCCGGCTA yielded a switch fluorescence ratio of 1.038 ± 0.0057.
With TGCCTAAATA the switch fluorescence ratio was 1 ± 0.031.
CAATAACTGG showed a switch fluorescence ratio of 1.01 ± 0.015.
In the case of TCGGGGTCGG, the switch fluorescence ratio is reported as 1.03 ± 0.016.
Work on AATTGCTCGT yielded a switch fluorescence ratio of 1 ± 0.016.
In the case of CAAGAACGTT, the switch fluorescence ratio is reported as 0.997 ± 0.018.
CGTTTTCTCG gave a switch fluorescence ratio of 0.994 ± 0.027.
With GGTTGTCCTA the switch fluorescence ratio was 0.978 ± 0.023.
Work on CGCAGAGCAA yielded a switch fluorescence ratio of 2.538 ± 0.0049.
For CGCGGGGTGT, the switch fluorescence ratio was 1.05 ± 0.03.
TTCTGGTAGG showed a switch fluorescence ratio of 1 ± 0.025.
AATGTTTGTC was tested, and the switch fluorescence ratio was 1.03 ± 0.1.
TTTCGGTTCC gave a switch fluorescence ratio of 1.05 ± 0.051.
With ATCATGGCGG the switch fluorescence ratio was 0.99 ± 0.017.
ATGTTTTTCT gave a switch fluorescence ratio of 0.963 ± 0.0029.
For ACGGCTGCGT, the switch fluorescence ratio was 1.05 ± 0.029.
TTGAAAATCT showed a switch fluorescence ratio of 1.02 ± 0.029.
With AAGAAAGACT the switch fluorescence ratio was 1.02 ± 0.013.
In the case of GAGTAAATTG, the switch fluorescence ratio is reported as 0.987 ± 0.019.
Work on TGATCTGTCG yielded a switch fluorescence ratio of 0.9814 ± 0.0086.
For AGCACCGGGT, the switch fluorescence ratio was 1.02 ± 0.018.
GGGGTCCTAG was tested, and the switch fluorescence ratio was 0.9959 ± 0.0065.
With AGGTGTAGCA the switch fluorescence ratio was 1.02 ± 0.051.
Work on GGGGTTTCTG yielded a switch fluorescence ratio of 0.986 ± 0.03.
Work on CTGTTCTGGG yielded a switch fluorescence ratio of 1.003 ± 0.0063.
TTAAGATGTA gave a switch fluorescence ratio of 1.01 ± 0.039.
For CGTATCTAGG, the switch fluorescence ratio was 0.98 ± 0.021.
TCAGTTGTGC gave a switch fluorescence ratio of 1.01 ± 0.042.
For GGGTAGGGTT, the switch fluorescence ratio was 0.9832 ± 0.0077.
In the case of CCAGGTATGG, the switch fluorescence ratio is reported as 1.05 ± 0.013.
CGGGTTAAT was tested, and the switch fluorescence ratio was 1 ± 0.041.
TGGCTTTTAC was tested, and the switch fluorescence ratio was 1.09 ± 0.056.
Sequence ATGGCATAAG has a switch fluorescence ratio of 1.003 ± 0.0044.
Sequence GGCTGAAGAG has a switch fluorescence ratio of 1.02 ± 0.033.
ATTAATGTGT was tested, and the switch fluorescence ratio was 0.9987 ± 0.0011.
For TCGGTACGG, the switch fluorescence ratio was 1.07 ± 0.017.
ATCCTATTGT showed a switch fluorescence ratio of 1.03 ± 0.036.
ATCGTGTG was tested, and the switch fluorescence ratio was 1.01 ± 0.038.
Sequence ATTCGTAGTG has a switch fluorescence ratio of 1.004 ± 0.0016.
For AAGGAGAGCT, the switch fluorescence ratio was 1.01 ± 0.054.
For CGGTTTCTGT, the switch fluorescence ratio was 0.9814 ± 0.0092.
With AAGGGATGAT the switch fluorescence ratio was 0.978 ± 0.019.
With GGAGGAGGCA the switch fluorescence ratio was 0.997 ± 0.033.
GAGACTAGAT was tested, and the switch fluorescence ratio was 1.01 ± 0.017.
AAGTCATTAA showed a switch fluorescence ratio of 0.99 ± 0.031.
Work on CGAGATGTTA yielded a switch fluorescence ratio of 0.993 ± 0.015.
GCATGGAAGA gave a switch fluorescence ratio of 0.992 ± 0.015.
With CGGGTCGTGC the switch fluorescence ratio was 1.03 ± 0.013.
Work on ATAATTTTAG yielded a switch fluorescence ratio of 0.999 ± 0.031.
For CCATGGGCGA, the switch fluorescence ratio was 1.1 ± 0.02.
In the case of TCAAGATA, the switch fluorescence ratio is reported as 1.13 ± 0.21.
CGTAGCGGTA was tested, and the switch fluorescence ratio was 1.53 ± 0.098.
GAATTGGGCT showed a switch fluorescence ratio of 0.9679 ± 0.0032.
Work on TTAAAAAAAT yielded a switch fluorescence ratio of 1.73 ± 1.4.
Work on GTAGGTCGAC yielded a switch fluorescence ratio of 1.01 ± 0.012.
ATATGCTGTA was tested, and the switch fluorescence ratio was 0.989 ± 0.032.
TTCGATTGTT was tested, and the switch fluorescence ratio was 0.952 ± 0.018.
TATGGGGGAT was tested, and the switch fluorescence ratio was 1.03 ± 0.093.
GGGGGTTCGT showed a switch fluorescence ratio of 0.98 ± 0.036.
In the case of TCTAATTCCT, the switch fluorescence ratio is reported as 1.06 ± 0.024.
Work on GCAAGTTGGG yielded a switch fluorescence ratio of 1.01 ± 0.028.
With TAACCTTTAA the switch fluorescence ratio was 1.04 ± 0.02.
In the case of CATTGAAATT, the switch fluorescence ratio is reported as 0.968 ± 0.032.
AAACTGGAAA was tested, and the switch fluorescence ratio was 0.99 ± 0.016.
GCTGCGGGGT gave a switch fluorescence ratio of 0.993 ± 0.045.
Work on AATTTGGGTC yielded a switch fluorescence ratio of 0.981 ± 0.016.
Work on TTTGGATATG yielded a switch fluorescence ratio of 0.992 ± 0.037.
AATGATAGTT was tested, and the switch fluorescence ratio was 0.986 ± 0.02.
In the case of GCCTTGAGGA, the switch fluorescence ratio is reported as 0.997 ± 0.018.
Work on TGAAAAGGGG yielded a switch fluorescence ratio of 0.998 ± 0.052.
ATGCCAAAGG was tested, and the switch fluorescence ratio was 1.01 ± 0.055.
In the case of AACTTCAGGC, the switch fluorescence ratio is reported as 1.05 ± 0.041.
GGTTTTAGCT showed a switch fluorescence ratio of 0.997 ± 0.016.
TTGTTTTGCA gave a switch fluorescence ratio of 0.971 ± 0.018.
Sequence GTGGCTCTGC has a switch fluorescence ratio of 0.973 ± 0.077.
Sequence GGTTTAGGCA has a switch fluorescence ratio of 0.999 ± 0.027.
TGGATGGCC gave a switch fluorescence ratio of 1.02 ± 0.032.
In the case of GATATTTTAG, the switch fluorescence ratio is reported as 1.009 ± 0.0087.
GATACTATTT showed a switch fluorescence ratio of 0.98 ± 0.03.
In the case of GCCTAATATG, the switch fluorescence ratio is reported as 0.9793 ± 0.0083.
ATGTATTAGG gave a switch fluorescence ratio of 0.997 ± 0.025.
GCCGCCTTTT was tested, and the switch fluorescence ratio was 1.023 ± 0.0016.
Sequence GGAAATTGAG has a switch fluorescence ratio of 0.999 ± 0.021.
Work on GTGTGGAGGT yielded a switch fluorescence ratio of 0.964 ± 0.016.
With TTAGTTATGT the switch fluorescence ratio was 0.992 ± 0.0093.
Work on GTGGTTGGCA yielded a switch fluorescence ratio of 0.968 ± 0.033.
TTTGTTAGGT showed a switch fluorescence ratio of 1 ± 0.031.
Sequence TAAGTTTTTA has a switch fluorescence ratio of 1.03 ± 0.023.
With TCTGATGGGG the switch fluorescence ratio was 1 ± 0.044.
Work on GTTTTGGGTG yielded a switch fluorescence ratio of 1.09 ± 0.058.
For CGGGTTGCGG, the switch fluorescence ratio was 0.9508 ± 0.009.
Work on TTAGTTATAG yielded a switch fluorescence ratio of 1 ± 0.025.
Sequence GGGAGGATTA has a switch fluorescence ratio of 1 ± 0.031.
Sequence GCTGAGGATG has a switch fluorescence ratio of 0.9799 ± 0.0058.
TTTTGTTGAG was tested, and the switch fluorescence ratio was 1 ± 0.035.
For GGTTGCAGAG, the switch fluorescence ratio was 1.01 ± 0.024.
In the case of CGGAGAAGTT, the switch fluorescence ratio is reported as 1 ± 0.015.
ATTATTGGTG showed a switch fluorescence ratio of 1.018 ± 0.0046.
Work on TAAAGGGGCT yielded a switch fluorescence ratio of 1.04 ± 0.049.
CAGTCCGGTC showed a switch fluorescence ratio of 1.06 ± 0.014.
Work on TCTCGGCGGA yielded a switch fluorescence ratio of 1.02 ± 0.028.
Work on AGAGTCAACT yielded a switch fluorescence ratio of 1 ± 0.042.
In the case of AAATGTCTCT, the switch fluorescence ratio is reported as 1.01 ± 0.012.
With GTAGGGCGTA the switch fluorescence ratio was 0.9635 ± 0.0073.
For AAATGTCTAG, the switch fluorescence ratio was 1.01 ± 0.037.
GCGTATTTGC gave a switch fluorescence ratio of 1.033 ± 0.01.
Sequence TTTATGGATC has a switch fluorescence ratio of 1.01 ± 0.05.
In the case of GTTCCTGTGG, the switch fluorescence ratio is reported as 1.0156 ± 0.00081.
For AAGGTGAATT, the switch fluorescence ratio was 1.06 ± 0.021.
TTCGGACTGC was tested, and the switch fluorescence ratio was 1.06 ± 0.031.
Sequence GAGGTTGGCA has a switch fluorescence ratio of 0.994 ± 0.01.
CATGGATGAA gave a switch fluorescence ratio of 1.04 ± 0.007.
With GGGCTTTGGG the switch fluorescence ratio was 1.008 ± 0.0068.
Work on GACATGAAGG yielded a switch fluorescence ratio of 1 ± 0.015.
Work on TTACGTTTC yielded a switch fluorescence ratio of 1 ± 0.034.
In the case of GCAGGGGGGC, the switch fluorescence ratio is reported as 1.03 ± 0.035.
Sequence GATTGGGGCG has a switch fluorescence ratio of 1.02 ± 0.015.
For CGGCCTGTGC, the switch fluorescence ratio was 1.03 ± 0.087.
In the case of TTGCTGTACG, the switch fluorescence ratio is reported as 1.04 ± 0.021.
For AAAAACATAG, the switch fluorescence ratio was 1.03 ± 0.017.
Work on TTTACAAGTA yielded a switch fluorescence ratio of 1.031 ± 0.0049.
In the case of TTCTGGATCT, the switch fluorescence ratio is reported as 0.996 ± 0.044.
Work on GGGAGTTTCG yielded a switch fluorescence ratio of 1.06 ± 0.095.
TTGTTAGTTT showed a switch fluorescence ratio of 0.983 ± 0.032.
With TGATCATATG the switch fluorescence ratio was 0.982 ± 0.068.
TCAGCTGGGG was tested, and the switch fluorescence ratio was 0.9799 ± 0.0058.
GCAAGTTAGA showed a switch fluorescence ratio of 1 ± 0.017.
TATATCTTTT was tested, and the switch fluorescence ratio was 1.04 ± 0.026.
Work on ATGTCTGGGC yielded a switch fluorescence ratio of 0.977 ± 0.014.
GTCGAAGAG was tested, and the switch fluorescence ratio was 0.987 ± 0.016.
GATATAAGGG was tested, and the switch fluorescence ratio was 0.979 ± 0.042.
Sequence GAGGAAGTAT has a switch fluorescence ratio of 0.978 ± 0.0024.
In the case of ATTACTTACA, the switch fluorescence ratio is reported as 1.308 ± 0.0037.
For ACGTTCGGCG, the switch fluorescence ratio was 0.9968 ± 0.0021.
Work on TTTTAATGGT yielded a switch fluorescence ratio of 1.02 ± 0.03.
CGGGGTTTTG was tested, and the switch fluorescence ratio was 1.014 ± 0.0068.
Work on GCCCCACCTG yielded a switch fluorescence ratio of 1.05 ± 0.029.
In the case of GGGGGTTTAG, the switch fluorescence ratio is reported as 1 ± 0.028.
In the case of AATAGTTATT, the switch fluorescence ratio is reported as 0.9791 ± 0.003.
For AAGGTTACGC, the switch fluorescence ratio was 1.05 ± 0.024.
With TATATGGGAA the switch fluorescence ratio was 0.998 ± 0.029.
In the case of GGGTTATACG, the switch fluorescence ratio is reported as 1.04 ± 0.031.
With TGATGAAATG the switch fluorescence ratio was 1.01 ± 0.049.
Work on ATATTGCGTT yielded a switch fluorescence ratio of 1.01 ± 0.02.
GGGCTTGTAA was tested, and the switch fluorescence ratio was 0.964 ± 0.012.
For TTCTATATGT, the switch fluorescence ratio was 0.977 ± 0.027.
Work on TGGCTTTGGT yielded a switch fluorescence ratio of 0.9862 ± 0.0046.
Work on GCGCCTGTAT yielded a switch fluorescence ratio of 0.986 ± 0.046.
In the case of CCGCGACGGG, the switch fluorescence ratio is reported as 1.69 ± 0.48.
Work on CTTAGGGGGA yielded a switch fluorescence ratio of 1 ± 0.012.
TTTACCTGGG gave a switch fluorescence ratio of 1.01 ± 0.032.
For TTGATGGGAT, the switch fluorescence ratio was 0.988 ± 0.052.
